Assay results published in article PMC3602595 (2013).

Biological target: T1, HasR TonB box dodecamer peptide (Serratia marcescens)
T1 chain: ALDSLTVLGAGG
Test: ITC

B1: TonBCTD CTD (protein)
chain: not shown
B1 was tested, and the Kd was roughly 50 µM.
